target: T1, Murine APRIL (mouse, UniProt Q9D777 105-241, limits assumed); assay: NNS library, phage display;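 also: ligand versus display occurrence-to-degeneracy ratio and higher means enriched by binding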
T1 sequence (looked up): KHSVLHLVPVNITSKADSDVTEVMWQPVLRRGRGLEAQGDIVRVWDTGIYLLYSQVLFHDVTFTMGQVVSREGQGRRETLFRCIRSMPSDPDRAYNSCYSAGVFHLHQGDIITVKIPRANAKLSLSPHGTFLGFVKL
Method: (§1) This new phage library was subjected to sorting against either BAFF, APRIL or the display target antibody. After 3 rounds of sorting, approximately 48 clones were picked from each selection and the DNA sequences of the phage clones were determined. […] The normalized F′ value corrects for display bias and is calculated as the percent occurrence to percent degeneracy ratio for ligand selection divided by the percent occurrence to percent degeneracy ratio for display efficiency. Percent occurrence is calculated by dividing the number of times a particular amino acid appeared at a particular position by the total number of amino acids sequenced at that position followed by multiplying by 100. Percent degeneracy is calculated by dividing the degeneracy in code for a particular amino acid divided by the total degeneracy possible at that position followed by multiplying by 100 (e.g., if only A, G and I were selected, total degeneracy possible would be 5).

Row | Binder | F' APRIL
1 | SLSCRKEQGKNYDHLLRDCISCASICGQHPKQCAYFCENKLR (receptor, phage library variant, format as m9) [TACI_d2 F78N] | 0
2 | SLSCRKEQGKLYDHLLRDCISCASICGQHPKQCAYFCENKLR (receptor, phage library variant, format as m9) [TACI_d2 F78L] | 0
3 | SLSCRKEQGKWYDHLLRDCISCASICGQHPKQCAYFCENKLR (receptor, phage library variant, format as m9) [TACI_d2 F78W] | 0
4 | SLSCRKEQGKKYDHLLRDCISCASICGQHPKQCAYFCENKLR (receptor, phage library variant, format as m9) [TACI_d2 F78K] | 0
5 | SLSCRKEQGKFSDHLLRDCISCASICGQHPKQCAYFCENKLR (receptor, phage library variant, format as m9) [TACI_d2 Y79S] | 0
6 | SLSCRKEQGKFYDHLLGDCISCASICGQHPKQCAYFCENKLR (receptor, phage library variant, format as m9) [TACI_d2 R84G] | 1
7 | SLSCRKEQGKHYDHLLRDCISCASICGQHPKQCAYFCENKLR (receptor, phage library variant, format as m9) [TACI_d2 F78H] | 0
8 | SLSCRKEQGKFYDHLLRDCISCASCCGQHPKQCAYFCENKLR (receptor, phage library variant, format as m9) [TACI_d2 I92C] | 0
9 | SLSCRKEQGKQYDHLLRDCISCASICGQHPKQCAYFCENKLR (receptor, phage library variant, format as m9) [TACI_d2 F78Q] | 0
10 | SLSCRKEQGKTYDHLLRDCISCASICGQHPKQCAYFCENKLR (receptor, phage library variant, format as m9) [TACI_d2 F78T] | 1
11 | SLSCRKEQGKPYDHLLRDCISCASICGQHPKQCAYFCENKLR (receptor, phage library variant, format as m9) [TACI_d2 F78P] | 0
12 | SLSCRKEQGKFYDHLLPDCISCASICGQHPKQCAYFCENKLR (receptor, phage library variant, format as m9) [TACI_d2 R84P] | 0
13 | SLSCRKEQGKEYDHLLRDCISCASICGQHPKQCAYFCENKLR (receptor, phage library variant, format as m9) [TACI_d2 F78E] | 0
14 | SLSCRKEQGKRYDHLLRDCISCASICGQHPKQCAYFCENKLR (receptor, phage library variant, format as m9) [TACI_d2 F78R] | 0
15 | SLSCRKEQGKMYDHLLRDCISCASICGQHPKQCAYFCENKLR (receptor, phage library variant, format as m9) [TACI_d2 F78M] | 0
16 | SLSCRKEQGKIYDHLLRDCISCASICGQHPKQCAYFCENKLR (receptor, phage library variant, format as m9) [TACI_d2 F78I] | 7
17 | SLSCRKEQGKGYDHLLRDCISCASICGQHPKQCAYFCENKLR (receptor, phage library variant, format as m9) [TACI_d2 F78G] | 0
18 | SLSCRKEQGKDYDHLLRDCISCASICGQHPKQCAYFCENKLR (receptor, phage library variant, format as m9) [TACI_d2 F78D] | 0
19 | SLSCRKEQGKYYDHLLRDCISCASICGQHPKQCAYFCENKLR (receptor, phage library variant, format as m9) [TACI_d2 F78Y] | 61
20 | SLSCRKEQGKCYDHLLRDCISCASICGQHPKQCAYFCENKLR (receptor, phage library variant, format as m9) [TACI_d2 F78C] | 0

target: human BAFF (human, UniProt Q9Y275 82-285, limits assumed); assay: NNS library, phage display;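 also: ligand versus display occurrence-to-degeneracy ratio and higher means enriched by binding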
Sequence (Q9Y275 82-285 limits assumed): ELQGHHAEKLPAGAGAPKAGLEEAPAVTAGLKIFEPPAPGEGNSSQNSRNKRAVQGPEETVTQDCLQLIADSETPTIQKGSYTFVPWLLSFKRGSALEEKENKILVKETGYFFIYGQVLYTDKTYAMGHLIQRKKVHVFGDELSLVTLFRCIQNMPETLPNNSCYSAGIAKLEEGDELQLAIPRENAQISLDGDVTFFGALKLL
Method: as §1

Row | Binder | F' BAFF
21 | SLSCRKEQGKNYDHLLRDCISCASICGQHPKQCAYFCENKLR (receptor, phage library variant, format as m9) [TACI_d2 F78N] | 0
22 | SLSCRKEQGKLYDHLLRDCISCASICGQHPKQCAYFCENKLR (receptor, phage library variant, format as m9) [TACI_d2 F78L] | 0
23 | SLSCRKEQGKWYDHLLRDCISCASICGQHPKQCAYFCENKLR (receptor, phage library variant, format as m9) [TACI_d2 F78W] | 0
24 | SLSCRKEQGKKYDHLLRDCISCASICGQHPKQCAYFCENKLR (receptor, phage library variant, format as m9) [TACI_d2 F78K] | 0
25 | SLSCRKEQGKHYDHLLRDCISCASICGQHPKQCAYFCENKLR (receptor, phage library variant, format as m9) [TACI_d2 F78H] | 0
26 | SLSCRKEQGKFYDHLLRDCISCASCCGQHPKQCAYFCENKLR (receptor, phage library variant, format as m9) [TACI_d2 I92C] | 0
27 | SLSCRKEQGKQYDHLLRDCISCASICGQHPKQCAYFCENKLR (receptor, phage library variant, format as m9) [TACI_d2 F78Q] | 0
28 | SLSCRKEQGKTYDHLLRDCISCASICGQHPKQCAYFCENKLR (receptor, phage library variant, format as m9) [TACI_d2 F78T] | 0
29 | SLSCRKEQGKPYDHLLRDCISCASICGQHPKQCAYFCENKLR (receptor, phage library variant, format as m9) [TACI_d2 F78P] | 0
30 | SLSCRKEQGKEYDHLLRDCISCASICGQHPKQCAYFCENKLR (receptor, phage library variant, format as m9) [TACI_d2 F78E] | 5
31 | SLSCRKEQGKRYDHLLRDCISCASICGQHPKQCAYFCENKLR (receptor, phage library variant, format as m9) [TACI_d2 F78R] | 0
32 | SLSCRKEQGKMYDHLLRDCISCASICGQHPKQCAYFCENKLR (receptor, phage library variant, format as m9) [TACI_d2 F78M] | 1
33 | SLSCRKEQGKIYDHLLRDCISCASICGQHPKQCAYFCENKLR (receptor, phage library variant, format as m9) [TACI_d2 F78I] | 10
34 | SLSCRKEQGKGYDHLLRDCISCASICGQHPKQCAYFCENKLR (receptor, phage library variant, format as m9) [TACI_d2 F78G] | 0
35 | SLSCRKEQGKDYDHLLRDCISCASICGQHPKQCAYFCENKLR (receptor, phage library variant, format as m9) [TACI_d2 F78D] | 0
36 | SLSCRKEQGKYYDHLLRDCISCASICGQHPKQCAYFCENKLR (receptor, phage library variant, format as m9) [TACI_d2 F78Y] | 41
37 | SLSCRKEQGKCYDHLLRDCISCASICGQHPKQCAYFCENKLR (receptor, phage library variant, format as m9) [TACI_d2 F78C] | 0

target: T1, Murine APRIL; assay: shotgun scan, phage display
From the text: Phage from each of the libraries described above were subjected to rounds of binding selection against APRIL, BAFF, or anti-tag antibody (3C8:2F4 Genentech, Inc.) immobilized on 96-well Nunc Maxisorp immunoplates (Sidhu, 2001). BSA-coated wells were used to determine non-specific background binding. Phage eluted from each target were propagated in E. coli XL1-Blue in the presence of M13K07 helper phage; amplified phage were used for selection against the same target in the […] round. […] Enrichment was calculated from the ratio of the phage titer eluted from the target-coated wells to the phage titer eluted from the BSA-coated wells. Individual clones from each library and selection target were then grown in a 96-well format in 400 ul of 2YT medium supplemented with carbenicillin and KO7 helper phage. […] Sequences of acceptable quality were translated and aligned. For APRIL-binding, 71, 40, and 54 sequences were analyzed from libraries one, two and three, respectively. For BAFF-binding, 70, 50, and 53 sequences were analyzed for libraries one, two and three, respectively. For the display selection, a minimum of 47 sequences were analyzed for each library. […] F values describe the effect of mutation on target binding, while accounting for differences in display efficiencies, with values >1 representing deleterious mutations and those <1 representing favorable mutations.

Row | Binder | F (APRIL)
38 | SLSCRKEQGKFYDHLLRDCISCASICGQHPKQCAYFCANKLR (receptor, phage library variant, format as m9) [TACI_d2 E105A] | 1.7
39 | SLSCRKEQGKFYDHLLRDCISCASICGQHPKQCASFCENKLR (receptor, phage library variant, format as m9) [TACI_d2 Y102S] | 1.5
40 | SLSCRKEQGKFYDHLLRDCISCASICGQHPKQCAYFCEDKLR (receptor, phage library variant, format as m9) [TACI_d2 N106D] | 1.2
41 | SLSCRKEQGKFYDALLRDCISCASICGQHPKQCAYFCENKLR (receptor, phage library variant, format as m9) [TACI_d2 H81A] | 2
42 | SLSCREEQGKFYDHLLRDCISCASICGQHPKQCAYFCENKLR (receptor, phage library variant, format as m9) [TACI_d2 K73E] | 7.7
43 | SLSCRKEQGKFYDHLLRDCISCASICGPHPKQCAYFCENKLR (receptor, phage library variant, format as m9) [TACI_d2 Q95P] | > 39
44 | SLSCRKEQGKFYDHLLRDCISCASICGQHPAQCAYFCENKLR (receptor, phage library variant, format as m9) [TACI_d2 K98A] | 3.5
45 | SLSCRKEQGKFSDHLLRDCISCASICGQHPKQCAYFCENKLR (receptor, phage library variant, format as m9) [TACI_d2 Y79S] | 31
46 | SLSCRKEQGKFYDHLLGDCISCASICGQHPKQCAYFCENKLR (receptor, phage library variant, format as m9) [TACI_d2 R84G] | 1.8
47 | SLSCRKEQGKFYDHLLRDCISCASICGQAPKQCAYFCENKLR (receptor, phage library variant, format as m9) [TACI_d2 H96A] | 12
48 | SLSCRKEQGKFYDDLLRDCISCASICGQHPKQCAYFCENKLR (receptor, phage library variant, format as m9) [TACI_d2 H81D] | 0.9
49 | SLSCRKEQGKFYDHLLRDCISCASICGQDPKQCAYFCENKLR (receptor, phage library variant, format as m9) [TACI_d2 H96D] | > 24
50 | SLSCRKEQGKFYDHLLRDCISCASICGQHPKQCAYFCENELR (receptor, phage library variant, format as m9) [TACI_d2 K107E] | 2.1
51 | SLSCRKEQGAFYDHLLRDCISCASICGQHPKQCAYFCENKLR (receptor, phage library variant, format as m9) [TACI_d2 K77A] | 1
52 | SLSCRKEQGKFYDHLLRDCISCASICGAHPKQCAYFCENKLR (receptor, phage library variant, format as m9) [TACI_d2 Q95A] | 6.6
53 | SLSCRKEQGKFYDHLARDCISCASICGQHPKQCAYFCENKLR (receptor, phage library variant, format as m9) [TACI_d2 L83A] | 31
54 | SLSCRKEQGKFYDHLLPDCISCASICGQHPKQCAYFCENKLR (receptor, phage library variant, format as m9) [TACI_d2 R84P] | > 22
55 | SLSCRKEQGKFYDHLLRDCISCASICGQHPEQCAYFCENKLR (receptor, phage library variant, format as m9) [TACI_d2 K98E] | 6.9
56 | SLSCRKEQGKFYDHLLRDCIACASICGQHPKQCAYFCENKLR (receptor, phage library variant, format as m9) [TACI_d2 S88A] | 3.8
57 | SLSCRKEQAKFYDHLLRDCISCASICGQHPKQCAYFCENKLR (receptor, phage library variant, format as m9) [TACI_d2 G76A] | 1.6
58 | SLSCRKEQGKFYDHLLRDCISCAAICGQHPKQCAYFCENKLR (receptor, phage library variant, format as m9) [TACI_d2 S91A] | 2.1
59 | SLSCRKEQGKFYDHLLRDCISCASICGEHPKQCAYFCENKLR (receptor, phage library variant, format as m9) [TACI_d2 Q95E] | 21
60 | SLSCRKEQGKFYDHLLRDCISCASICGQHPKQCAYSCENKLR (receptor, phage library variant, format as m9) [TACI_d2 F103S] | 5.8
61 | SLSCRKEQGKFYDHLLRDCISCASICGQHPKACAYFCENKLR (receptor, phage library variant, format as m9) [TACI_d2 Q99A] | 1.9
62 | SLSCRKEQGKFYDHLPRDCISCASICGQHPKQCAYFCENKLR (receptor, phage library variant, format as m9) [TACI_d2 L83P] | > 20
63 | SLSCRKEQGKFYDHLLRDCISCASICGQHAKQCAYFCENKLR (receptor, phage library variant, format as m9) [TACI_d2 P97A] | > 20
64 | SLSCRKEQGKFYDHLLRDCISCASICGQHPKQCAYFCENKPR (receptor, phage library variant, format as m9) [TACI_d2 L108P] | 1.4

From patent publication US20080181886A1 (Genentech, published 2008)
